The record followed here is the supplement of paper PMC11316812.

± gives the standard deviation of the averaged measurements.

Series [1] concerns MCF7. Nature of the series: percentage of EdU-negative (G0-arrested) nuclei per well, 72 h; higher = more G0 arrest. Conditions: reference: sequence is the full UniProt precursor, the tested protein was the secreted form or ectodomain.
The test system of series [2] is hTERT-HMEC. The description is as above. The following applies: reference: sequence is the full UniProt precursor, the tested protein was the secreted form or ectodomain.
Setting [3] is: protein concentration 0.0065 µM.
Where [4] appears, read: protein concentration 0.00525 µM.
The mark [5] stands for this setting: protein concentration 0.0525 µM.
Where [6] appears, read: protein concentration 0.0225 µM.
The mark [7] stands for this setting: protein concentration 0.03108 µM.
[8] abbreviates: protein concentration 0.3108 µM.
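Also: secreted proteins added to cultured cells, EdU pulse at the end, nuclei found by Hoechst imaging, EdU status from nuclear versus surrounding ring intensity ratio, PBS as neutral control.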

Take “MEAVAVAAAVGVLLLAGAGGAAGDEAREAAAVRALVARLLGPGPAADFSVSVERALAAKPGLDTYSLGGGGAARVRVRGSTGVAAAAGLHRYLRDFCGCHVAWSGSQLRLPRPLPAVPGELTEATPNRYRYYQNVCTQSYSFVWWDWARWEREIDWMALNGINLALAWSGQEAIWQRVYLALGLTQAEINEFFTGPAFLAWGRMGNLHTWDGPLPPSWHIKQLYLQHRVLDQMRSFGMTPVLPAFAGHVPEAVTRVFPQVNVTKMGSWGHFNCSYSCSFLLAPEDPIFPIIGSLFLRELIKEFGTDHIYGADTFNEMQPPSSEPSYLAAATTAVYEAMTAVDTEAVWLLQGWLFQHQPQFWGPAQIRAVLGAVPRGRLLVLDLFAESQPVYTRTASFQGQPFIWCMLHNFGGNHGLFGALEAVNGGPEAARLFPNSTMVGTGMAPEGISQNEVVYSLMAELGWRKDPVPDLAAWVTSFAARRYGVSHPDAGAAWRLLLRSVYNCSGEACRGHNRSPLVRRPSLQMNTSIWYNRSDVFEAWRLLLTSAPSLATSPAFRYDLLDLTRQAVQELVSLYYEEARSAYLSKELASLLRAGGVLAYELLPALDEVLASDSRFLLGSWLEQARAAAVSEAEADFYEQNSRYQLTLWGPEGNILDYANKQLAGLVANYYTPRWRLFLEALVDSVAQGIPFQQHQFDKNVFQLEQAFVLSKQRYPSQPRGDTVDLAKKIFLKYYPRWVAGSW”: the “percentage of EdU-negative” value in series [1] (setting [3]) was 24.9 ± 1.1%; in series [1] (protein concentration 0.065 µM) it was 26 ± 2.8%; in series [2] (setting [3]), 4.39 ± 0.1%; in series [2] (protein concentration 0.065 µM), 5.55 ± 0.91%.

Turning to “MEDLCVANTLFALNLFKHLAKASPTQNLFLSPWSISSTMAMVYMGSRGSTEDQMAKVLQFNEVGANAVTPMTPENFTSCGFMQQIQKGSYPDAILQAQAADKIHSSFRSLSSAINASTGNYLLESVNKLFGEKSASFREEYIRLCQKYYSSEPQAVDFLECAEEARKKINSWVKTQTKGKIPNLLPEGSVDGDTRMVLVNAVYFKGKWKTPFEKKLNGLYPFRVNSAQRTPVQMMYLREKLNIGYIEDLKAQILELPYAGDVSMFLLLPDEIADVSTGLELLESEITYDKLNKWTSKDKMAEDEVEVYIPQFKLEEHYELRSILRSMGMEDAFNKGRANFSGMSERNDLFLSEVFHQAMVDVNEEGTEAAAGTGGVMTGRTGHGGPQFVADHPFLFLIMHKITNCILFFGRFSSP”, the “percentage of EdU-negative” value in series [1] (setting [4]) amounted to 24.7 ± 0.25%; in series [1] (setting [5]), 27.383 ± 0.014%; in series [2] (setting [4]) it was 5.431 ± 0.036%; in series [2] (setting [5]) it was 5.26 ± 1.3%.

“MEEAILVPCVLGLLLLPILAMLMALCVHCHRLPGSYDSTSSDSLYPRGIQFKRPHTVAPWPPAYPPVTSYPPLSQPDLLPIPRSPQPLGGSHRTPSSRRDSDGANSVASYENEGASGIRGAQAGWGVWGPSWTRLTPVSLPPEPACEDADEDEDDYHNPGYLVVLPDSTPATSTAAPSAPALSTPGIRDSAFSMESIDDYVNVPESGESAEASLDGSREYVNVSQELHPGAAKTEPAALSSQEAEEVEEEGAPDYENLQELN”: the “percentage of EdU-negative” value in series [1] (setting [6]) was 25.6 ± 1.2%; in series [1] (protein concentration 0.225 µM), 25.8 ± 2.6%; in series [2] (setting [6]), 5.1 ± 0.68%; in series [2] (protein concentration 0.225 µM), 5.5816 ± 0.0039%.

“MEEGQYSEIEELPRRRCCRRGTQIVLLGLVTAALWAGLLTLLLLWHWDTTQSLKQLEERAARNVSQVSKNLESHHGDQMAQKSQSTQISQELEELRAEQQRLKSQDLELSWNLNGLQADLSSFKSQELNERNEASDLLERLREEVTKLRMELQVSSGFVCNTCPEKWINFQRKCYYFGKGTKQWVHARYACDDMEGQLVSIHSPEEQDFLTKHASHTGSWIGLRNLDLKGEFIWVDGSHVDYSNWAPGEPTSRSQGEDCVMMRGSGRWNDAFCDRKLGAWVCDRLATCTPPASEGSAESMGPDSRPDPDGRLPTPSAPLHS”: the “percentage of EdU-negative” value in series [1] (protein concentration 0.005 µM) amounted to 23.6 ± 0.92%; in series [1] (protein concentration 0.05 µM), 23.9 ± 0.99%; in series [2] (protein concentration 0.005 µM) it was 5.26 ± 0.5%; in series [2] (protein concentration 0.05 µM), 5.97 ± 0.12%.

Regarding “MEESVVRPSVFVVDGQTDIPFTRLGRSHRRQSCSVARVGLGLLLLLMGAGLAVQGWFLLQLHWRLGEMVTRLPDGPAGSWEQLIQERRSHEVNPAAHLTGANSSLTGSGGPLLWETQLGLAFLRGLSYHDGALVVTKAGYYYIYSKVQLGGVGCPLGLASTITHGLYKRTPRYPEELELLVSQQSPCGRATSSSRVWWDSSFLGGVVHLEAGEKVVVRVLDERLVRLRDGTRSYFGAFMV”, the “percentage of EdU-negative” value in series [1] (protein concentration 0.012 µM) is 23.7 ± 1.9%; in series [1] (protein concentration 0.12 µM), 25.5 ± 0.62%; in series [2] (protein concentration 0.012 µM), 6.38 ± 0.16%; in series [2] (protein concentration 0.12 µM), 15.2 ± 1.9%.

For “MEFLWAPLLGLCCSLAAADRHTVFWNSSNPKFRNEDYTIHVQLNDYVDIICPHYEDHSVADAAMEQYILYLVEHEEYQLCQPQSKDQVRWQCNRPSAKHGPEKLSEKFQRFTPFTLGKEFKEGHSYYYISKPIHQHEDRCLRLKVTVSGKITHSPQAHDNPQEKRLAADDPEVRVLHSIGHSAAPRLFPLAWTVLLLPLLLLQTP”, the “percentage of EdU-negative” value in series [1] (setting [7]) amounted to 24.521 ± 0.0085%; in series [1] (setting [8]), 24.81 ± 0.061%; in series [2] (setting [7]) it was 6.23 ± 0.24%; in series [2] (setting [8]), 7.2445 ± 0.004%.
